Measurements as given in US20020110853A1 (IMMUNEX, published 2002).

Key:
[1] = molecular target: T1, human TWEAK receptor (TWEAKR), expressed on transfected COS cells (human, UniProt Q9NP84 28-129); test: expression cloning by panning with TWEAK coated beads, then slide binding on transfected COS cells
T1 construct: 129 residue polypeptide cloned from a HUVEC library; Signal peptide 1-27 is predicted
T1 sequence: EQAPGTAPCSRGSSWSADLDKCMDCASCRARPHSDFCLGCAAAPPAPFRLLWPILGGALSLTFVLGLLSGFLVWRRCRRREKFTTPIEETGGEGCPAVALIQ
Text: To clone TWEAKR cDNA, an expression vector encoding a growth hormone leader, a leucine zipper multimerization domain, and the C-terminal extracellular domain of human TWEAK (see Chicheportiche et al., J. Biol. Chem. 272(51):32401, 1997) was constructed. This expression vector, which was named pDC409-LZ-TWEAK, comprised the DNA sequence SEQ ID NO: 1 and encoded the polypeptide SEQ ID NO:2. pDC409-LZ-TWEAK conditioned supernatants were produced by transient transfection into CVI-EBNA cells. These supernatants were incubated with magnetic beads coated with polyclonal goat anti-mouse antibody that had previously been incubated with a mouse monoclonal antibody against the leucine zipper. Control beads were produced by mixing the coated beads with supernatants from cells transfected with empty vector.
A monolayer of COS cells grown in a T175 flask was transfected with 15 μg of DNA pools of complexity of 100,000 from a human umbilical vein endothelial cell (HUVEC) cDNA expression library. After 2 days these cells were lifted from the flask, and incubated in 1.5 mls of binding media plus 5% non-fat dried milk for 3 hours at 4° C. on a rotator wheel. […] Slide binding was performed as described more fully below, with the exception that TWEAKR positive slides were detected by incubation with […] followed by incubation with ¹²⁵I-labled M15 anti-leucine zipper.

[2] = molecular target: T2, DR3, expressed on transfected COS cells (UniProt Q93038 25-417, limits assumed); test: slide binding on transfected COS cells, 125I anti-leucine zipper antibody, autoradiography
T2 construct: whole, on cells; also called Apo3; WSL-1
T2 sequence (looked up): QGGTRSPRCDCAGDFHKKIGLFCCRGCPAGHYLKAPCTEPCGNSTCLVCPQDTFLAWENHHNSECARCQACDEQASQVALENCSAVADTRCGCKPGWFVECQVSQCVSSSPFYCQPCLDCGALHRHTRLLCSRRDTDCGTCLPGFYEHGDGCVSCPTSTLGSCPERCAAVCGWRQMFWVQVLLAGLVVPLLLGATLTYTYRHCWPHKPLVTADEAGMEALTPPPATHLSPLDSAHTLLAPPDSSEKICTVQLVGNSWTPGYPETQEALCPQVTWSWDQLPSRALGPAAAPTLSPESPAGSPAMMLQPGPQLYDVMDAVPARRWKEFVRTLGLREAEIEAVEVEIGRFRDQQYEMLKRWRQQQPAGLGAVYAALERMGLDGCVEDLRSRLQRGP
Experimental: Slides of COS cells were transfected with expression vectors containing TWEAKR, DR3, or vector without insert (control). After two days the cells were incubated with concentrated supernatants from CV-1 cells transfected with a vector encoding the leucine zipper TWEAK extracellular domain fusion protein. One hour later the cells were washed and probed with an ¹²⁵Ilabeled antibody against the leucine-zipper domain. The slides were washed, fixed, and autoradiography was performed using x-ray film. The TWEAKR transfected cells bound significant amounts of TWEAK. […] This experiment confirmed that the TWEAKR polypeptide identified in part A above, rather than DR3, is the major receptor for TWEAK. After discovery of the functional TWEAK receptor, other investigators also reported that DR3 is not the major receptor for TWEAK (Kaptein et al., FEBS Lett., 485(2-3):135, 2000. The TWEAK-TWEAKR binding interaction was further characterized by Scatchard analysis.

[3] = molecular target: T3, human TWEAKR-Fc (TWEAKR extracellular domain fused to Fc portion from human IgG1) (human, 125-I labeled in the Scatchard assay); test: ligand blot of TweakR-Fc (with and without DTT, with and without heating at 100° C.) probed with TWEAK-leucine zipper supernatant and 125I M15 anti-leucine zipper
T3 construct: the assays name only TWEAKR-Fc; also called huTWEAKR-Fc
Experimental: Ligand blots were generated by running either TweakR-Fc or RP-Fc as a control on a standard SDS-PAGE and blotted onto nitrocellulose. The separate samples were prepared by with and without the addition of reducing agent (DTT) and with and without heating at 100° C. to denature the proteins. This blot was probed with TWEAK-leucine zipper conditioned supernatants followed by ¹²⁵I labeled M15 anti-leucine zipper.

B1: leucine zipper TWEAK extracellular domain fusion protein (product of pDC409-LZ-TWEAK) (ligand)
chain: not shown
notes: Used as conditioned supernatant of transfected CV-1/EBNA cells; also called TWEAK-leucine zipper
binding result [1]: binds
binding result [2]: no binding
binding result [3]: binds
